Experimental findings from publication PMC11087952, “Biochemical characterization of Escherichia coli DnaC variants that alter DnaB helicase loading onto DNA” (The Journal of Biological Chemistry, 2024) are described below.

Substitutions are numbered along the chain they refer to. Names and notes keep the numbering of the source.

In series [1] the target is T1, Escherichia coli DnaB replicative helicase (wild-type) (E. coli, UniProt P0ACB0 1-471).
T1 construct: DnaB replicative DNA helicase, E. coli, wild-type; The introduction describes DnaB as a closed ring-shaped hexamer; also called DnaB helicase
T1 sequence (P0ACB0 whole entry): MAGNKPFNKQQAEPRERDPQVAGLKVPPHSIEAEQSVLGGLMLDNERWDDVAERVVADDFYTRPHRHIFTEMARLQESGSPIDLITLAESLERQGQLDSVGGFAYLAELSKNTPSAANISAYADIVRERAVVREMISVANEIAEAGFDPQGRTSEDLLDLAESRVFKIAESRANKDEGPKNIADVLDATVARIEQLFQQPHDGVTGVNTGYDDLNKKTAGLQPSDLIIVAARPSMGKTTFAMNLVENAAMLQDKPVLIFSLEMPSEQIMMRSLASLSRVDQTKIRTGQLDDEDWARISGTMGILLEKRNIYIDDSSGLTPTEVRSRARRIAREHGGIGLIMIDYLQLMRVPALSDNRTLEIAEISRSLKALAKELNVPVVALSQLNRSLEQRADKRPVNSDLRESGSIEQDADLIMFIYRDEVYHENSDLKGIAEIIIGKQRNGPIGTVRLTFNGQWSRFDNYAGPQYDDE
The series can be described thus: SEC; 10 nmol DnaB and 12 nmol DnaC (1.2:1 DnaC:DnaB) in 20 mM Tris-HCl pH 8.5, 0.2 M NaCl, 5 mM MgCl2, 1 mM BME, 1 mM ATP; analytical size exclusion column (Increase 10/300 GL); peak fractions analysed by PAGE for DnaB and DnaC. The note with it: both partners purified.

Another series concerns the target T2, DnaC (wild-type) (Escherichia coli, UniProt P0AEF0 1-245).
T2 sequence: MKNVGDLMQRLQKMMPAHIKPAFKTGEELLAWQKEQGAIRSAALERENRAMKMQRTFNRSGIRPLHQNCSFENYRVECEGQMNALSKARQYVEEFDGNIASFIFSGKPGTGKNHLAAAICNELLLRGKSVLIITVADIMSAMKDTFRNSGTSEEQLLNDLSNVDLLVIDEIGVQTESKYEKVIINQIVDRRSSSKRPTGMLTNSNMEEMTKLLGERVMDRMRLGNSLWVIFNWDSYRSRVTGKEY
The series can be described thus: fluorescence anisotropy; 5 mM Mg2+, 2 mM ATP; 50 mM HEPES-KOH pH 7.5, 125 mM KCl, 10% glycerol, 5 mM MgCl2, 2 mM ATP, 2 mM DTT, 0.1 mg/ml BSA, 10 nM DNA, 0-50 uM DnaC; 37 C 15 min, read at 25 C; saturation. The note with it: protein: recombinant; tags: 6XHis-MBP removed by TEV; single strand.

The target in another series is T3, DnaC 1331 (Escherichia coli, UniProt P0AEF0 1-245, A84T).
T3 sequence: T2 sequence with A84T
The series can be described thus: fluorescence anisotropy; 5 mM Mg2+, 2 mM ATP; similar to wild-type; 50 mM HEPES-KOH pH 7.5, 125 mM KCl, 10% glycerol, 5 mM MgCl2, 2 mM ATP, 2 mM DTT, 0.1 mg/ml BSA, 10 nM DNA, 0-50 uM DnaC; 37 C 15 min, read at 25 C; saturation. The conditions noted are these: protein: recombinant; tags: 6XHis-MBP, TEV cleaved; periplasmic localization signal on expression construct; single strand.

For another series, the target named is T4, DnaC 809 (Escherichia coli, UniProt P0AEF0 1-245, E176G).
T4 sequence: T2 sequence with E176G
Described as above. The note with it: protein: recombinant; tags: 6XHis-MBP, TEV cleaved; periplasmic localization signal on expression construct; single strand.

A further series deals with T5, DnaC 809,820 (Escherichia coli, UniProt P0AEF0 1-245, E176G;K178N).
T5 sequence: T2 sequence with E176G, K178N
The series is described as above. The note with it: protein: recombinant; tags: 6XHis-MBP, TEV cleaved; periplasmic localization signal on expression construct; single strand.

B1: DnaC 809 (E176G) (natural protein, E. coli, UniProt P0AEF0 1-245, looked up)
chain: T2 sequence with E176G
notes: DnaC helicase loader, E. coli, with E176G; Point mutation introduced by site-directed mutagenesis; the allele was first isolated as a suppressor of priA deficiency; also called product of dnaC809
Take B1: the binding result in series [1] is “binds”.

B2: DnaC 811 (I184F) (natural protein, E. coli, UniProt P0AEF0 1-245, looked up)
chain: T2 sequence with I184F
notes: DnaC helicase loader, E. coli, with I184F; Point mutation introduced by site-directed mutagenesis; also called product of dnaC811
As to B2, in series [1], the binding result is given as “binds”.

B3: DnaC 809,820 (E176G, K178N) (natural protein, E. coli, UniProt P0AEF0 1-245, looked up)
chain: T2 sequence with E176G, K178N
notes: DnaC helicase loader, E. coli, with E176G and K178N; Point mutations introduced by site-directed mutagenesis; also called product of dnaC809,820
With B3, the binding result in series [1] is “binds”.
Regarding TTTTTTTTTTTTTTTTTTTT (ssDNA) [dT20], the binding result in the series with DnaC (wild-type), in the series with DnaC 1331, in the series with DnaC 809 and with DnaC 809,820 was “binds” each time.
